Measured values as given in the Human Domainome abundance scans (Beltran et al. 2025).
± gives the uncertainty stated by the source.

B1: Transitional endoplasmic reticulum ATPase, residues 26 to 106; numbered along this chain, P55072 (parent)
chain: LIVDEAINEDNSVVSLSQPKMDELQLFRGDTVLLKGKKRREAVCIVLSDDTCSDEKIRMNRVVRNNLRVRLGDVISIQPCP

Variants of: B1
Test: abundance fitness (aPCA) (normalised: wild type 0, dead -1); higher = more abundant; growth selection in yeast, the domain comes from the species named
Settings: Homo sapiens

Variant | abundance fitness
L47F | 0.052 ± 0.12
L47V | -0.018 ± 0.052
S53D | 0.021 ± 0.14
S53L | -0.026 ± 0.065
S53F | -0.032 ± 0.069
S53T | -0.019 ± 0.072
S53K | -0.016 ± 0.11
S53M | -0.09 ± 0.073
S53V | -0.022 ± 0.053
S53C | -0.042 ± 0.081
S53A | -0.019 ± 0.048
S53H | -0.102 ± 0.12
S53G | -0.019 ± 0.048
S53E | 0.003 ± 0.091
S53Q | 0.033 ± 0.11
S53P | -0.142 ± 0.1
S53I | -0.204 ± 0.13
S53R | -0.035 ± 0.042
S53N | 0.044 ± 0.15
S53W | -0.22 ± 0.071
G36Y | -0.186 ± 0.12
G36W | -0.618 ± 0.15
C44V | -0.026 ± 0.074
C44A | -0.017 ± 0.062

Variant | abundance fitness
C44D | -0.707 ± 0.14
C44E | -0.559 ± 0.18
C44R | -0.104 ± 0.053
C44I | -0.189 ± 0.099
C44F | -0.074 ± 0.091
C44Y | -0.091 ± 0.13
C44Q | 0.106 ± 0.083
C44L | -0.02 ± 0.034
C44G | -0.006 ± 0.051
C44T | -0.066 ± 0.07
C44K | 0.057 ± 0.075
C44S | -0.032 ± 0.069
C44M | 0.085 ± 0.077
C44P | -0.969 ± 0.14
C44N | -0.172 ± 0.25
R40H | -0.139 ± 0.11
R40Y | 0.073 ± 0.17
R40T | 0.086 ± 0.082
R40M | -0.077 ± 0.12
R40A | 0.097 ± 0.086
R40Q | -0.039 ± 0.15
R40P | -0.122 ± 0.11
R40V | 0.027 ± 0.045
R40C | -0.071 ± 0.12

Variant | abundance fitness
R40G | 0.107 ± 0.055
R40D | -0.085 ± 0.099
R40I | -0.046 ± 0.13
R40W | -0.059 ± 0.16
R40S | -0.061 ± 0.054
R40E | -0.051 ± 0.13
R40N | -0.075 ± 0.12
R40L | -0.033 ± 0.056
R40F | -0.006 ± 0.13
I45S | -0.028 ± 0.059
I45K | -0.002 ± 0.13
I45P | -0.157 ± 0.12
I45H | -0.088 ± 0.084
I45G | -0.06 ± 0.036
I45E | 0.035 ± 0.1
I45N | 0.036 ± 0.13
I45A | -0.006 ± 0.057
I45C | 0.008 ± 0.063
I45W | -0.176 ± 0.086
I45R | 0.054 ± 0.055
I45F | -0.018 ± 0.076
I45D | -0.183 ± 0.084
I45M | -0.137 ± 0.064
I45L | -0.016 ± 0.059

Variant | abundance fitness
I45Y | -0.029 ± 0.11
I45V | 0.028 ± 0.032
D54F | -0.112 ± 0.099
D54H | -0.073 ± 0.18
D54T | 0.218 ± 0.095
D54G | -0.075 ± 0.044
D54M | 0.006 ± 0.12
D54P | -0.116 ± 0.072
D54Q | -0.279 ± 0.1
D54C | -0.089 ± 0.11
D54K | 0.08 ± 0.085
D54V | -0.016 ± 0.049
D54R | -0.205 ± 0.038
D54E | -0.062 ± 0.079
D54W | -0.289 ± 0.07
D54N | -0.072 ± 0.089
D54I | -0.106 ± 0.14
D54A | -0.076 ± 0.058
V43Q | 0.147 ± 0.12
V43D | -0.093 ± 0.11
V43M | 0.098 ± 0.14
V43C | -0.012 ± 0.1
V43Y | 0.072 ± 0.14
V43R | 0.07 ± 0.053

Variant | abundance fitness
V43P | -0.26 ± 0.085
V43S | -0.052 ± 0.076
V43A | -0.026 ± 0.064
V43T | -0.068 ± 0.076
V43N | -0.176 ± 0.19
V43I | -0.038 ± 0.097
V43W | 0.03 ± 0.14
V43L | -0.099 ± 0.066
V43G | -0.289 ± 0.06
V43K | -0.006 ± 0.13
V43E | 0.063 ± 0.089
S48M | -0.05 ± 0.094
S48A | 0.065 ± 0.065
S48Y | -0.168 ± 0.1
S48I | 0.031 ± 0.15
S48T | -0.005 ± 0.074
S48F | -0.342 ± 0.17
S48V | 0.004 ± 0.055
S48R | -0.015 ± 0.051
S48E | 0.04 ± 0.079
S48Q | -0.106 ± 0.1
S48D | -0.137 ± 0.1
S48N | 0.049 ± 0.14
S48W | -0.357 ± 0.18

Variant | abundance fitness
S48K | -0.004 ± 0.11
S48H | -0.23 ± 0.12
S48C | 0.07 ± 0.068
S48G | 0.001 ± 0.049
R39C | 0.034 ± 0.13
R39T | 0.013 ± 0.1
R39N | -0.17 ± 0.11
R39F | -0.007 ± 0.12
R39M | -0.142 ± 0.12
R39Q | 0.079 ± 0.12
R39K | -0.041 ± 0.11
R39E | 0.056 ± 0.073
R39S | 0.016 ± 0.05
R39Y | -0.136 ± 0.1
R39W | -0.08 ± 0.094
R39D | 0.008 ± 0.12
R39A | -0.001 ± 0.06
R39P | -0.079 ± 0.096
R39I | -0.082 ± 0.17
R39L | -0.054 ± 0.061
R39G | 0.008 ± 0.045
K56E | -0.088 ± 0.073
K56F | -0.127 ± 0.1
K56H | -0.183 ± 0.26

Variant | abundance fitness
K56D | -0.271 ± 0.15
K56L | -0.047 ± 0.055
K56G | 0.008 ± 0.04
K56I | 0.013 ± 0.15
K56C | 0.027 ± 0.085
K56N | 0.111 ± 0.23
K56A | 0.018 ± 0.07
K56M | -0.112 ± 0.082
K56P | -0.971 ± 0.2
E41P | -0.131 ± 0.1
E41K | 0.045 ± 0.095
E41N | -0.383 ± 0.2
E41S | -0.09 ± 0.057
E41Q | -0.098 ± 0.43
E41D | -0.125 ± 0.082
E41L | -0.296 ± 0.062
E41G | -0.269 ± 0.061
E41I | -0.312 ± 0.14
E41T | -0.123 ± 0.098
E41Y | -0.14 ± 0.15
E41C | -0.399 ± 0.1
E41H | -0.167 ± 0.14
E41V | -0.213 ± 0.056
